Experimental data: patent publication US20250051454A1 (DUKE UNIVERSITY, published 2025)

Columns and labels:
[1] = molecular target: T1, HLA-E-RL9HIV single chain trimer on transfected 293T cells (human, UniProt P61769 21-119; P13747 22-358); experiment: flow cytometry, SCT-transfected 293T cells, MFI bar chart [E]
T1 construct: also called control HLA-E-peptide complex

[2] = molecular target: T2, HLA-E-RL9SIV single chain trimer on transfected 293T cells (human, UniProt P61769 21-119; P13747 22-358); experiment: as above
T2 construct: also called control HLA-E-peptide complex

| Binder | binding result [1] | binding result [2] |
| --- | --- | --- |
| CA175 (antibody, V domains shown) VH: EVQLVESGGGLVQPGGSLRLSCAASGFTFSTYPMNWVRQAPGKGLEWVSYISSSSSTIYYADCVKGRFTISRDNAKNSLYLQMNSLRDEDTAVYYCARYYIAYGMDVWGQGTTVTVSS VL: DIQMTQSPSSMSASVGDRVTITCRASQGISNYLAWFQQKPGKAPKRLIYGASSLHRGVPSRFSGSGSGTEFTLTITSLQPEDFATYYCLQHNTYPRTFGQGTKVEIK | no binding (tested: 2 µg/ml) | no binding (tested: 2 µg/ml) |
| CA177 (antibody, V domains shown) VH: QVQLQESGPGLVKPSETLSLTCTVSGGSISSYYWSWIRQPPGKGLEWIGYIYYSGSTNYNPSLKSRVTISVDTSKNQFSLKLSSVTAADTAVYYCASHDYTDHAAGYWGQGTLVTVSS VL: not shown | no binding (tested: 2 µg/ml) | no binding (tested: 2 µg/ml) |
| CA180 (antibody, V domains shown) VH: QVQLVQSGAEVKKPGASVKVSCKASGYTFTSYGISWVRQAPGQGLEWMGWISAYNGNTNYAQKLQGRVTMTTDTSTSTAYMELRSLRSDDTAVYYCARDLGYSSSWYTSNWFDPWGQGTLVTVSS VL: QSALTQPASVSGSPGQSITISCTGTSSDVGSYNLVSWYQQHPGKAPKLMIYEGSKRPSGVSNRFSGSKSGNTASLTISGLQAEDEADYYCCSYAGSSTVVFGGGTKLTVL | no binding (tested: 2 µg/ml) | no binding (tested: 2 µg/ml) |
| CA166 (antibody, V domains shown) VH: EVQLVESGGGLVKPGGSLRLSCAASGFTFSSYSMNWVRQAPGKGLEWVSSISSSSSYIYYADSVKGRFTISRDNAKNSLYLQMNSLRAEDTAVYYCARVMITFGGADYWGQGTLVTVSS VL: DIQMTQSPSSLSASVGDRVTITCRASQNINTYLNWYQKRPGIAPKLLIYGASSLQSGVPSRFSGSGSGTDFTLTISSLQPEDFATYYCQQYHTSPLTFGGGTPVDIK | no binding (tested: 2 µg/ml) | no binding (tested: 2 µg/ml) |
| CA170 (antibody, V domains shown) VH: EVQLVESGGGLVKPGGSLRLSCAASGFTFSSYSMNWVRQAPGKGLEWVSSISSSSSYIYYADSVKGRFTISRDNAKNSLYLQMNSLRAEDTAVYYCARDRDLLDAFDIWGQGTMVTVSS VL: SYVLTQPPSVSVAPGQTARITCGGNNIGSKSVHWYQQKPGQAPVLVVYDDSDRPSGIPERFSGSNSGNTATLTISRVEAGDEADYYCQVWDSSSDHPWVFGGGTKLTVL | no binding (tested: 2 µg/ml) | no binding (tested: 2 µg/ml) |
| CA176 (antibody, V domains shown) VH: QVQLVESGGGVVQPGRSLRLSCAASGFTFSSYGMHWVRQAPGKGLEWVAVISYDGSNKYYADSVKGRFTISRDNSKNTLYLQMNSLRAEDTAVYYCAKDEGSSDFWSGYYASFDYWGQGTLVTVSS VL: DIQMTQSPISLSASVGDRVTITCRASQDISNYLTWYQQKPGKAPKLLIYAASSLQSGVPSRFSGSGSGTDFTLTISNLQPEDFATYYCQQNYSYPCTFGQGTKVEIK | no binding (tested: 2 µg/ml) | no binding (tested: 2 µg/ml) |
| CA169 (antibody, V domains shown) VH: EVQLVESGGGLVKPGGSLRLSCAASGFTFSSYSMNWVRQAPGKGLEWVSSISSSSSYIYYADSVKGRFTISRDNAKNSLYLQMNSLRAEDTAVYYCASGVLLEAFDYWGQGTLVTVSS VL: SYVLTQPPSVSVAPGQTARITCGGNNIGSKSVHWYQQKPGQAPVLVVYDDSDRPSGIPERFSGSNSGNTATLTISRVEAGDEADYYCQVWDSSSDHVVFGGGTKLTVL | no binding (tested: 2 µg/ml) | no binding (tested: 2 µg/ml) |
| CA168 (antibody, V domains shown) VH: QVQLVQSGAEVKKPGSSVKVSCKASGGTFSSYAISWVRQAPGQGLEWMGGIIPIFGTANYAQKFQGRVTITADKSTSTAYMELSSLRSEDTAVYYCARALTYYDFPDYGMDVWGQGTTVTVSS VL: QSALTQPPSASGSPGQSVTISCTGTSSDVGGYNYVSWYQQHPGKVPKLMIYEVTKRPSGVPDRFSGSKSGNTASLTVSGLQAEDEADYYCSSYAGSNNLVFGGGTKLTVL | no binding (tested: 2 µg/ml) | no binding (tested: 2 µg/ml) |
| CA162 (antibody, V domains shown) VH: QVQLVESGGGLVKPGGSLRLSCAASGFTFSDYYMSWIRQAPGKGLEWVSYISSSSSYTNYADSVKGRFTISRDNAKNSLYLQMNSLRAEDTAVYYCARGRTMFKNYYDSSGYYGYFDYWGQGTLVTVSS VL: DIQMTQSPSSVSASVGDRVTITCRASQGISSWLAWYQQKPGKAPKLLIYAASSLQSGVPSRFSGSGSGTDFTLTISSLQPEDFATYYCQQANSPLTFGGGTKVEIK | no binding (tested: 2 µg/ml) | no binding (tested: 2 µg/ml) |
| CA178 (antibody, V domains shown) VH: QVQLVQSGAEVKKPGSSVKVSCKASGGTFSSYAISWVRQAPGQGLEWMGGIIPIFGTANYAQKFQGRVTITADESTSTAYMELSSLRSEDTAVYYCARDYGGSYYYEYFQHWGQGTLVTVSS VL: not shown | no binding (tested: 2 µg/ml) | no binding (tested: 2 µg/ml) |
| CA173 (antibody, V domains shown) VH: EVQLVESGGGLVKPGGSLRLSCAASGFTFSSYSMNWVRQAPGEGLEWVSSISSSSTYIYYADSVKGRFTISRDNAKNSLYLQMNSLRAEDTAVYYCARDRPAGSSSLGSGYFDLWGRGTLVTVSS VL: not shown | no binding (tested: 2 µg/ml) | no binding (tested: 2 µg/ml) |
